Measured values reported in patent US12077566B2, “Mutants of recombinant immunoregulatory protein of Ganoderma lucidum and applications thereof” (priority 2017, dated 2024).
Residue numbers refer to the chain shown, from its start. Numbers in names are those of the source. Entries after “also recorded” stand apart in the source; their conditions may differ.

B1: rLZ-8 (K16A/S18A/K41A/D45A): alanine mutant of rLZ-8 at K16, S18, K41 and D45 (protein)
chain: MSDTALIFRLAWDVKALAFDYTPNWGRGNPNNFIDTVTFPAVLTAKAYTYRVAVSGRNLGVKPSYAVESDGSQKVNFLEYNSGYGIADTNTIQVFVVDPDTNNDFIIAQWN
B2: rLZ-8 (D45A): alanine mutant of rLZ-8 at D45 (protein)
chain: B1 chain with A16K, A18S, A41K
B3: rLZ-8 (D70K): rLZ-8 mutant after surface potential optimization, D70K (protein)
chain: B1 chain with A16K, A18S, A41K, A45D, D70K
B4: rLZ-8 (S18A): alanine mutant of rLZ-8 at S18 (protein)
chain: B1 chain with A16K, A41K, A45D
B5: rLZ-8 (L17K/D70K): rLZ-8 mutant after surface potential optimization, L17K and D70K (protein)
chain: B1 chain with A16K, L17K, A18S, A41K, A45D, D70K
B6: rLZ-8 (K16A/K41A): alanine mutant of rLZ-8 at K16 and K41 (protein)
chain: B1 chain with A18S, A45D
B7: mPEG-SPA-rLZ-8: rLZ-8 modified with methoxy polyethylene glycol succinimidyl propionate (conjugate, UniProt P14945 2-111, looked up)
Immunomodulatory protein Ling …: SDTALIFRLAWDVKKLSFDYTPNWGRGNPNNFIDTVTFPKVLTDKAYTYRVAVSGRNLGVKPSYAVESDGSQKVNFLEYNSGYGIADTNTIQVFVVDPDTNNDFIIAQWN
modifications: mPEG-SPA PEGylation
notes: rLZ-8 modified with methoxy polyethylene glycol succinimidyl propionate

How the values were obtained:
[1] = target: EGFR extracellular domain (Homo sapiens, UniProt P00533); assay: Affinity test by surface plasmon resonance (Biacore T200, CM5 chip); format: binding; details: for Dissociation rate constant (koff) / Ka: EGFR extracellular domain coupled on CM5 chip, analyte 4-256 nM; for Affinity with the EGFR (in words): compared with rLZ-8
Experimental: The Biacore™ T200 equipment (a Surface Plasmon Resonance from GE Company) is selected. Through the surface plasma resonance technology, the affinity of the rLZ-8 and the mutants thereof to the EGFR extracellular domain is tested. The CM5 chip is adopted to serve as the affinity test chip.
The EGFR extracellular domain (with an amino acid sequence of 25-645) serves as the ligand for coupling; 1 mg EGFR freeze-dried powders are diluted with HEPES buffer solution to a concentration of 400 μg/mL and set aside. Three 1.5 mL EP tubes are prepared; 10 μL ligand are respectively added into the three tubes, then 90 μL 10 mM sodium acetate with different pH values of 4.5, 5.0 and 5.5 are respectively added into the tubes and are mixed completely and uniformly; and a final concentration of the ligand is 40 μg/mL. Moreover, 200 μL 50 mM sodium acetate is added into another 1.5 mL EP tube.
The ligand has a molecular weight of 70 kDa, the analyte (rLZ-8) has a molecular weight of 12.4 kDa. In theory, one rLZ-8 […] can bind with one EGFR, and thus the stoichiometric ratio Sm is equal to 1. Through the following equations, the coupling amount RL of the ligand is calculated.
Through the experimental experience, the optimal reagent coupling amount is set to be 3*RL, and the coupling amount is set to be 1700 RU. The EGFR extracellular domain is successively coupled on the CM5 chip.
In the affinity test, in order to eliminate the influence of different concentrations on the affinity, every of the rLZ-8 and the mutants thereof are tested with eight concentrations, wherein: seven concentrations are gradient concentrations, and the last one is the test reference concentration.

[2] = system: human liver cancer Hep G2 cells; details: for Tumor inhibitory effect (in words): after administration for 28 days; for Mice weight after experiment / Effect on survival time of the mice (in words): mouse, in vivo; for Mice tumor weight after experiment / Survival rate of mice after experiment: qd×28 i.v., rLZ-8 and mutants 0.5 mg/kg, sorafenib 50 mg/kg; for Survival rate of mice after experiment: 10 mice per group
Description: Two weeks later, the model mice are divided into groups randomly, and each group has 10 mice. The administration method is caudal vein injection, once a day, for consecutive 28 days (qd×28, i.v.). […] During the experiment, if the mouse dies, the dead mouse is weighted on the same day, and the tumor tissue is taken out to be weighted. For the living mouse after administration for 28 days, the mouse is killed, and then the tumor tissue is taken out to be weighted. The death time and death number of the mice in each group are recorded in detail; the survival conditions of the mice of the experimental groups and the control groups are analyzed, and the survival rate is calculated, wherein the survival rate is obtained through subtracting the death number of the mice from the total number of the mice, and then dividing the difference by the total number of the mice.

[3] = system: human breast cancer MCF7 cells; assay: Orthotopic transplantation tumor model of human breast cancer MCF7 cells; format: in vivo, BALB/c nude mice; details: after administration for 28 days
Experimental: One day before the experiment, 0.5 mg of 17ß estradiol sustained release tablet is embedded below the neck skin of the BALB/c nude mice.

[4] = system: human colon cancer SW480 cells; assay: Transplantation tumor model of human colon cancer SW480 cells; format: in vivo, BALB/c nude mice; details: after administration for 28 days
Experimental: The RPMI1640 medium containing 10% fetal bovine serum is selected for the human colon cancer SW480 cells, and then is placed in the CO2 constant-temperature incubator at 37° C. for culturing. The SW480 cells at the logarithmic phase are digested by pancreatin and thereafter washed with serum-free RPMI1640 medium; 2×10^6 cells are inoculated below the back skin of the BALB/c nude mice; after the tumor blocks for observation are formed and have the diameter larger than 0.5 cm, the mice are divided into groups randomly; and the transplantation tumor model of human colon cancer SW480 cells are constructed in the BALB/c nude mice.

[5] = system: liver cancer, lung cancer, breast cancer and colon cancer; assay: Animal pharmacodynamic experiments of liver, lung, breast and colon cancer (summary statement); format: in vivo, mice; details: breast and colon cancer models together
[6] = system: Hep G2 cytomembrane; assay: In vitro cellular activity: binding with Hep G2 cytomembrane and entering the cell; format: cell-based; details: 100 μg/mL
[7] = system: human lung cancer A549 cells; assay: Orthotopic transplantation tumor model of human lung cancer A549 cells; details: for Mice survival rate after experiment / Mice tumor weight after experiment / Mice weight after experiment / Tumor inhibitory effect (in words): after administration for 28 days; for Effect on survival time (in words): compared with the rLZ-8;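 on all read-outs here: test animals were NOG mice aged 6-8 weeks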
Experimental: The human lung cancer A549 cell strain is selected. The NOG Mice of 6-8 weeks old are selected.
The DMEM containing 10% fetal bovine serum is selected for the human lung cancer A549 cells, and then is placed in the CO2 constant-temperature incubator at 37° C. for culturing. The A549 cells at the logarithmic phase are digested by pancreatin and thereafter washed with serum-free DMEM; the living cell concentration is adjusted to 1×10^8 cells per milliliter; 20 μL cell suspension is taken and inoculated at the lung of the NOG mice; two weeks later, the orthotopic transplantation tumor model of A549 lung cancer cells is constructed in the NOG mice.

[8] = system: tumor; assay: Early animal pharmacodynamic experiments of PEG-modified rLZ-8; format: in vivo; details: compared with rLZ-8

Molecule	Ka [1] [M⁻¹ s⁻¹]	Affinity with the EGFR (in words) [1]	Tumor inhibitory effect (in words) [2]	Mice weight after experiment [2] [g]	Mice tumor weight after experiment [2] [g]	Survival rate of mice after experiment [2] [%]	Mice tumor weight after experiment [3] [g]	Tumor inhibitory effect (in words) [3]	Mice tumor weight after experiment [4] [g]	Tumor inhibitory effect (in words) [4]	Tumor inhibitory effect (in words) [5]	Mice survival rate after experiment [7] [%]	Mice tumor weight after experiment [7] [g]	Mice weight after experiment [7] [g]	Tumor inhibitory effect (in words) [7]	further results
B1	139	obviously decreased by 2-3 orders of magnitudes	nearly no tumor inhibitory effect	17.3 ± 1.5	1.62 ± 0.72	30	1.02 ± 0.33	nearly no tumor inhibitory effect	3.12 ± 0.54	nearly no tumor inhibitory effect	nearly no tumor inhibitory effect	10	1.22 ± 0.83	17.6 ± 1.4	nearly no tumor inhibitory effect	Dissociation rate constant (koff) [1]: 0.00423 s⁻¹; Affinity with the EGFR (in words) ([1]; listed as rLZ-8 (K16A/S18A/K41 A/D45A)): obviously decreased affinity; Binding with the Hep G2 cytomembrane and entering the cell (in words) [6]: little binding amount with the Hep G2 cytomembrane and nearly cannot be observed to enter the cell
B2	1200	obviously decreased by 2-3 orders of magnitudes; also recorded: obviously decreased affinity	nearly no tumor inhibitory effect	17.4 ± 1.6	1.44 ± 0.80	50	1.08 ± 0.28	nearly no tumor inhibitory effect	3.26 ± 0.56	nearly no tumor inhibitory effect	nearly no tumor inhibitory effect	30	1.28 ± 0.68	17.5 ± 1.5	nearly no tumor inhibitory effect	–
B3	203000	–	obviously increased tumor inhibitory effects	20.7 ± 1.7	0.35 ± 0.21	80	0.52 ± 0.28	obviously increased tumor inhibitory effect	1.22 ± 0.29	obviously increased tumor inhibitory effect	obviously increased tumor inhibitory effects	80	0.36 ± 0.28	21.1 ± 1.2	obviously increased tumor inhibitory effect	Effect on survival time of the mice (in words) [2]: certain effect on lengthening the survival time; Effect on survival time (in words) [7]: can obviously lengthen the survival time
B4	3720	obviously decreased by 2-3 orders of magnitudes; also recorded: obviously decreased affinity	nearly no tumor inhibitory effect	17.6 ± 1.4	1.50 ± 0.71	30	1.04 ± 0.30	nearly no tumor inhibitory effect	3.01 ± 0.39	nearly no tumor inhibitory effect	nearly no tumor inhibitory effect	30	1.20 ± 0.70	17.8 ± 1.6	nearly no tumor inhibitory effect	–
B5	215000	–	obviously increased tumor inhibitory effects	21.0 ± 1.8	0.42 ± 0.23	90	0.49 ± 0.26	obviously increased tumor inhibitory effect	1.09 ± 0.33	obviously increased tumor inhibitory effect	obviously increased tumor inhibitory effects	80	0.40 ± 0.26	21.2 ± 1.5	obviously increased tumor inhibitory effect	Effect on survival time of the mice (in words) [2]: certain effect on lengthening the survival time; Effect on survival time (in words) [7]: can obviously lengthen the survival time
B6	220	obviously decreased by 2-3 orders of magnitudes	nearly no tumor inhibitory effect	17.2 ± 1.3	1.46 ± 0.93	20	1.12 ± 0.37	nearly no tumor inhibitory effect	3.12 ± 0.47	nearly no tumor inhibitory effect	nearly no tumor inhibitory effect	20	1.26 ± 0.77	17.4 ± 1.5	nearly no tumor inhibitory effect	Dissociation rate constant (koff) [1]: 0.000273 s⁻¹; Affinity with the EGFR (in words) ([1]; listed as rLZ-8 (K16A/K41 A)): obviously decreased affinity
B7	–	–	–	–	–	–	–	–	–	–	–	–	–	–	–	Antitumor effect (in words) [8]: decreased
